From patent WO2005092925A2 come the findings set out here.

Among the targets are human FcγRIIb (human) (UniProt P31994); human FcγRIIc (human) (UniProt P31995); human FcRn (human) (UniProt P55899); human FcγRI (human) (UniProt P12314).
Common to all, as to test: AlphaScreen
On the technique in general: Alpha assays give light when donor and acceptor beads are brought close together.

Experiment [1] addresses human V158 FcγRIIIa, extracellular region fused with GST (human) (UniProt P08637).
In experiment [2] the target is human FcγRIIa H131 (human) (UniProt P12318).
Sequence of UniProt P12318 (P12318 36-218 limits assumed): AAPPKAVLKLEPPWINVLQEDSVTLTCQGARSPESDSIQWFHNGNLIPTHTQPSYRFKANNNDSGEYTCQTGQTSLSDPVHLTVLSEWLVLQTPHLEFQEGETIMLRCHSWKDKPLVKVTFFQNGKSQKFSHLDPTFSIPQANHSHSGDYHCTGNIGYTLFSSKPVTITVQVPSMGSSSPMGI

Sequence of UniProt P08637 (P08637 17-208 F176V): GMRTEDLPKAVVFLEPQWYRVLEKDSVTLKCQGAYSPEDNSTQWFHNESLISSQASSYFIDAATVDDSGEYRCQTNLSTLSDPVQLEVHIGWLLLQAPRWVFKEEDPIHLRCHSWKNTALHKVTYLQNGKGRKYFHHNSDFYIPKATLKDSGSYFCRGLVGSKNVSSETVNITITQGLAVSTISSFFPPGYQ
Sequence of UniProt P55899 (P55899 24-297 limits assumed): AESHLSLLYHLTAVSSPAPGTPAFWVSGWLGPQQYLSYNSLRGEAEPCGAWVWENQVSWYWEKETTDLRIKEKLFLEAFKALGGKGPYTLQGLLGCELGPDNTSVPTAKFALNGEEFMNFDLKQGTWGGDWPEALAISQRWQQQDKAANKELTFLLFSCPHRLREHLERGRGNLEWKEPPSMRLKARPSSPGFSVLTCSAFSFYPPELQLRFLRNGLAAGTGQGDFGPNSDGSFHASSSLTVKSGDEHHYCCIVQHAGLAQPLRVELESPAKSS
Sequence of UniProt P12314 (P12314 16-288 limits assumed): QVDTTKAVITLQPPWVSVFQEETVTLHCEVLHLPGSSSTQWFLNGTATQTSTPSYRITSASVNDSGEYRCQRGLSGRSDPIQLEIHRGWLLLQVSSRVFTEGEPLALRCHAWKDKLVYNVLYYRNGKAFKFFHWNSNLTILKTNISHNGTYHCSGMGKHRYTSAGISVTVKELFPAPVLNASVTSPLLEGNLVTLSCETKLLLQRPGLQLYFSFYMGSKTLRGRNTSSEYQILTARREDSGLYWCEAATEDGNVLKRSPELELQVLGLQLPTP
Sequence of UniProt P31994 (P31994 43-217 limits assumed): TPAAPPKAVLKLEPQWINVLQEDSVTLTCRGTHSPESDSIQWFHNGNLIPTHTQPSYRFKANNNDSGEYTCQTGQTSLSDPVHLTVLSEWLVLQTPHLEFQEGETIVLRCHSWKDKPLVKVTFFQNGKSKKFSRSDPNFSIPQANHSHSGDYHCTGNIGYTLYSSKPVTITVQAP
Sequence of UniProt P31995 (P31995 43-217 limits assumed): as the sequence (P31994 43-217 limits assumed) above

As to Campath L234A (antibody), the Fold WT in experiment [1] stood at 0.35 fold; in the experiment with human FcγRIIb (human) it was 0.85 fold; with human FcγRIIc (human), 0.62 fold; with human FcRn (human), 0.58 fold; with human FcγRI (human) it was 0.44 fold; in experiment [2] it was 0.8 fold.

For Campath L235P (antibody), the Fold WT in experiment [1] is 0.78 fold; with human FcγRIIb (human) it was 1.16 fold; in the experiment with human FcγRIIc (human), 0.89 fold; with human FcRn (human), 0.86 fold; with human FcγRI (human) it was 0.13 fold; in experiment [2] it was 1.16 fold.

In the case of Campath L234R (antibody), the Fold WT in experiment [1] stood at 0.73 fold; with human FcγRIIb (human), 1.49 fold; in the experiment with human FcγRIIc (human) it was 1.52 fold; with human FcRn (human), 1.19 fold; with human FcγRI (human), 0.38 fold; in experiment [2], 0.87 fold.

With Campath L235W (antibody), the Fold WT in experiment [1] came to 0.32 fold; with human FcγRIIb (human) it was 0.77 fold; in the experiment with human FcγRIIc (human), 0.5 fold; with human FcRn (human) it was 0.46 fold; with human FcγRI (human) it was 0.11 fold; in experiment [2], 0.9 fold.

Turning to Campath E233F (antibody), the Fold WT was found to be 0.58 fold in experiment [1]; 0.73 fold with human FcγRIIb (human); 0.84 fold with human FcγRIIc (human); 0.9 fold in the experiment with human FcRn (human); 0.23 fold with human FcγRI (human); 0.64 fold in experiment [2].

Campath P230Y (antibody): the Fold WT stood at 0.56 fold in experiment [1]; 0.85 fold in the experiment with human FcγRIIb (human); 1.22 fold with human FcγRIIc (human); 0.65 fold with human FcRn (human); 0.44 fold with human FcγRI (human); 0.4 fold in experiment [2].

As for Campath E233W (antibody), the Fold WT in experiment [1] amounted to 0.35 fold; in the experiment with human FcγRIIb (human), 0.82 fold; with human FcγRIIc (human) it was 0.7 fold; with human FcRn (human), 1.64 fold; with human FcγRI (human) it was 0.28 fold; in experiment [2] it was 0.86 fold.

With Campath E233L (antibody), the Fold WT was found to be 0.52 fold in experiment [1]; 0.26 fold with human FcγRIIb (human); 0.54 fold with human FcγRIIc (human); 0.6 fold with human FcRn (human); 0.53 fold in the experiment with human FcγRI (human); 0.55 fold in experiment [2].

Turning to Campath P228K (antibody), the Fold WT in experiment [1] was 1.28 fold; with human FcγRIIb (human), 1.14 fold; in the experiment with human FcγRIIc (human), 1.13 fold; in the experiment with human FcRn (human) it was 1.55 fold; with human FcγRI (human), 1.91 fold; in experiment [2], 1.31 fold.

For the substance Campath L234M (antibody), the Fold WT in experiment [1] was 0.49 fold; with human FcγRIIb (human), 0.9 fold; with human FcγRIIc (human), 0.65 fold; with human FcRn (human), 0.55 fold; with human FcγRI (human) it was 0.64 fold; in experiment [2] it was 0.89 fold.

Turning to Campath P228G (antibody), the Fold WT in experiment [1] came to 0.98 fold; with human FcγRIIb (human), 0.96 fold; with human FcγRIIc (human) it was 0.54 fold; in the experiment with human FcRn (human) it was 1.77 fold; with human FcγRI (human) it was 1 fold; in experiment [2], 2.6 fold.

Take Campath P228Y (antibody): the Fold WT in experiment [1] is 0.75 fold; in the experiment with human FcγRIIb (human) it was 1.59 fold; in the experiment with human FcγRIIc (human) it was 1.61 fold; in the experiment with human FcRn (human) it was 1.45 fold; with human FcγRI (human) it was 1.15 fold; in experiment [2], 1.68 fold.

Turning to Campath P230G (antibody), the Fold WT in experiment [1] was found to be 0.48 fold; with human FcγRIIb (human), 1.13 fold; with human FcγRIIc (human), 0.75 fold; with human FcRn (human), 1.16 fold; with human FcγRI (human), 1.04 fold; in experiment [2], 0.99 fold.

Turning to Campath P232K (antibody), the Fold WT in experiment [1] was determined as 0.77 fold; with human FcγRIIb (human), 0.85 fold; with human FcγRIIc (human) it was 0.61 fold; with human FcRn (human), 1.56 fold; in the experiment with human FcγRI (human), 0.7 fold; in experiment [2] it was 0.87 fold.

In the case of Campath D221K (antibody), the Fold WT worked out at 65.6 fold in experiment [1]; 3.5 fold with human FcγRIIb (human); 17.8 fold in the experiment with human FcγRIIc (human); 5.66 fold in the experiment with human FcRn (human); 4.53 fold with human FcγRI (human); 4.32 fold in experiment [2].

In the case of Campath L234K (antibody), the Fold WT in experiment [1] amounted to 0.53 fold; in the experiment with human FcγRIIb (human), 1.42 fold; in the experiment with human FcγRIIc (human), 1.09 fold; in the experiment with human FcRn (human), 0.62 fold; in the experiment with human FcγRI (human), 0.43 fold; in experiment [2] it was 0.65 fold.

Regarding Campath L235K (antibody), the Fold WT is 0.63 fold in experiment [1]; 1.28 fold with human FcγRIIb (human); 1.34 fold in the experiment with human FcγRIIc (human); 0.96 fold with human FcRn (human); 0.42 fold with human FcγRI (human); 0.56 fold in experiment [2].

Turning to Campath E233M (antibody), the Fold WT in experiment [1] is 0.7 fold; in the experiment with human FcγRIIb (human) it was 0.49 fold; with human FcγRIIc (human), 0.85 fold; in the experiment with human FcRn (human), 1.13 fold; with human FcγRI (human), 0.29 fold; in experiment [2], 0.67 fold.

Regarding Campath L235E (antibody), the Fold WT in experiment [1] worked out at 1.06 fold; in the experiment with human FcγRIIb (human), 0.83 fold; in the experiment with human FcγRIIc (human) it was 0.8 fold; in the experiment with human FcRn (human) it was 0.78 fold; with human FcγRI (human), 0.34 fold; in experiment [2], 0.63 fold.

With Campath G236M (antibody), the Fold WT in experiment [1] stood at 0.19 fold; with human FcγRIIb (human), 0.79 fold; with human FcγRIIc (human) it was 0.4 fold; in the experiment with human FcRn (human) it was 1.6 fold; in experiment [2] it was 0.34 fold.

On to Campath K222E (antibody), for which the Fold WT was found to be 1.51 fold in experiment [1]; 1.04 fold with human FcγRIIb (human); 1.22 fold with human FcγRIIc (human); 0.64 fold with human FcRn (human); 1.77 fold in the experiment with human FcγRI (human); 1.26 fold in experiment [2].

Take Campath E233V (antibody): the Fold WT in experiment [1] turned out to be 0.5 fold; with human FcγRIIb (human), 0.37 fold; in the experiment with human FcγRIIc (human), 0.61 fold; with human FcRn (human), 0.91 fold; in the experiment with human FcγRI (human), 0.25 fold; in experiment [2], 0.71 fold.

For the substance Campath G236W (antibody), the Fold WT in experiment [1] turned out to be 0.29 fold; with human FcγRIIb (human), 0.7 fold; with human FcγRIIc (human), 0.29 fold; with human FcRn (human), 1.52 fold; in the experiment with human FcγRI (human), 0.78 fold; in experiment [2], 2.13 fold.

With Campath L235A (antibody), the Fold WT came out at 0.41 fold in experiment [1]; 0.84 fold with human FcγRIIb (human); 0.78 fold with human FcγRIIc (human); 0.97 fold with human FcRn (human); 0.34 fold with human FcγRI (human); 0.62 fold in experiment [2].

For Campath G236P (antibody), the Fold WT in experiment [1] amounted to 0.1 fold; with human FcγRIIb (human), 0.24 fold; with human FcγRIIc (human), 0.15 fold; with human FcRn (human), 1.41 fold; with human FcγRI (human), 0.15 fold; in experiment [2], 0.11 fold.

As for Campath E233I (antibody), the Fold WT in experiment [1] came out at 0.88 fold; with human FcγRIIb (human) it was 1.69 fold; in the experiment with human FcγRIIc (human) it was 1.8 fold; in the experiment with human FcRn (human), 0.95 fold; with human FcγRI (human) it was 0.3 fold; in experiment [2], 1.09 fold.

For the substance Campath G236V (antibody), the Fold WT in experiment [1] is 0.27 fold; with human FcγRIIb (human) it was 0.82 fold; with human FcγRIIc (human) it was 0.47 fold; in the experiment with human FcRn (human), 1.35 fold; in the experiment with human FcγRI (human), 0.14 fold; in experiment [2], 1.52 fold.

Take Campath E233A (antibody): the Fold WT in experiment [1] is 0.46 fold; with human FcγRIIb (human), 0.6 fold; with human FcγRIIc (human), 0.71 fold; with human FcRn (human) it was 0.93 fold; in the experiment with human FcγRI (human) it was 0.1 fold; in experiment [2], 1.23 fold.

Consider Campath G236D (antibody), for which the Fold WT in the experiment with human FcγRIIb (human) stood at 3.77 fold; with human FcγRIIc (human), 4.74 fold; with human FcRn (human), 1.53 fold; with human FcγRI (human) it was 0.15 fold; in experiment [2] it was 5.01 fold.

Turning to Campath E233Q (antibody), the Fold WT was found to be 0.51 fold in experiment [1]; 0.27 fold with human FcγRIIb (human); 0.39 fold in the experiment with human FcγRIIc (human); 0.61 fold in the experiment with human FcRn (human); 0.19 fold with human FcγRI (human); 0.52 fold in experiment [2].

In the case of Campath E233H (antibody), the Fold WT in experiment [1] amounted to 0.32 fold; with human FcγRIIb (human), 0.58 fold; with human FcγRIIc (human), 0.78 fold; with human FcRn (human), 0.99 fold; with human FcγRI (human), 0.17 fold; in experiment [2], 0.74 fold.

Turning to Campath E233G (antibody), the Fold WT in experiment [1] was determined as 1.21 fold; with human FcγRIIb (human), 0.94 fold; in the experiment with human FcγRIIc (human), 0.74 fold; in the experiment with human FcRn (human) it was 2.09 fold; in the experiment with human FcγRI (human), 0.36 fold; in experiment [2], 1.21 fold.

With Campath P230E (antibody), the Fold WT with human FcγRIIb (human) was 2.34 fold; with human FcγRIIc (human), 1.47 fold; with human FcRn (human), 1.01 fold; in the experiment with human FcγRI (human), 2.07 fold; in experiment [2], 1.25 fold.

Campath E233T (antibody): the Fold WT in experiment [1] was determined as 0.42 fold; with human FcγRIIb (human), 0.78 fold; with human FcγRIIc (human), 0.83 fold; with human FcRn (human) it was 1.19 fold; in the experiment with human FcγRI (human), 0.15 fold; in experiment [2], 1.28 fold.

Campath G236T (antibody): the Fold WT is 0.95 fold with human FcγRIIb (human), 0.48 fold with human FcγRIIc (human), 1.56 fold in the experiment with human FcRn (human) and 1.89 fold in experiment [2].

In the case of Campath E233N (antibody), the Fold WT in experiment [1] was 0.48 fold; with human FcγRIIb (human) it was 0.34 fold; with human FcγRIIc (human), 0.46 fold; with human FcRn (human) it was 0.74 fold; with human FcγRI (human), 0.16 fold; in experiment [2] it was 0.5 fold.

Turning to Campath E233S (antibody), the Fold WT in experiment [1] worked out at 0.36 fold; with human FcγRIIb (human) it was 0.31 fold; with human FcγRIIc (human) it was 0.37 fold; with human FcRn (human) it was 1.1 fold; with human FcγRI (human), 0.17 fold; in experiment [2] it was 0.62 fold.
